Laboratory results as given in patent publication US20200230168, “NUCLEIC ACID OLIGOMERS AND USES THEREFOR” (Queensland University of Technology, published 2020).

Experiments:
THOC4 (ALYREF) [1] = molecular target: T1, THOC4 (ALYREF) (UniProt Q86V81 Q86V81:2-257); assay: SPR
hSSB1 [2] = molecular target: T2, hSSB1 (Homo sapiens, UniProt Q9BQ15 Q9BQ15:1-211); assay: SPR
THOC4 (ALYREF) [3] = molecular target: T1, THOC4 (ALYREF); assay: SPR; LSA_In3E3 = 1
hSSB1 [4] = molecular target: T2, hSSB1; assay: SPR; LSA_In3E3 = 1

T2 sequence (Q9BQ15 whole entry, one chain of several): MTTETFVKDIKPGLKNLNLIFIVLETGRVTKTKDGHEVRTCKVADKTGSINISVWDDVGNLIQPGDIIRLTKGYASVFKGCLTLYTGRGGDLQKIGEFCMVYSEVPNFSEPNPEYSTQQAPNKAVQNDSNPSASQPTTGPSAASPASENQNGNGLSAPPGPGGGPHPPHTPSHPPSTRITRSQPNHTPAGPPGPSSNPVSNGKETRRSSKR

Binder	binding signal (THOC4 (ALYREF) [1])	binding signal (hSSB1 [2])	binding signal (THOC4 (ALYREF) [3])	binding signal (hSSB1 [4])
UCUCCCAGCGUGCGCCAU (ssRNA, 2'-OMe all, full PS) [DKLS696616 (SEQ 9)]	1.12 normalized Rmax	0.79 normalized Rmax		
GGGCCUCCCGCACUUGAGAU (ssRNA, 2'-OMe all, full PS) [DKLS679059 (SEQ 55)]	0.37 normalized Rmax	0.85 normalized Rmax		
UGUGCUAUUCUGUGAAUU (ssRNA, 2'-OMe all, full PS) [DKLS484655 (SEQ 22)]	0.22 normalized Rmax	0.43 normalized Rmax		
CGUGUCAUCCGCUCUCGACU (ssRNA, 2'-OMe all, PS all) [LSA_In3E3_CT4]			0.21 normalized Rmax	0.8 normalized Rmax
CCGGUGAGCGACACUAGGCU (ssRNA, 2'-OMe all, PS all) [In3LSA_scr3_4]			0.66 normalized Rmax	0.77 normalized Rmax
CCAUCUGUAAUUACAAAAUUAAA (ssRNA, 2'-OMe all, full PS) [DKLS765774 (SEQ 16)]	0.97 normalized Rmax	1.93 normalized Rmax		
CAGAGGCAGCAGUACGACGG (ssRNA, PS all, no sugar modification) [LSA_ATG PS only (DKLS577569)]			1.03 normalized Rmax	1.44 normalized Rmax
CCACUGAGCCCGACUUCCCU (ssRNA, 2'-OMe all, full PS) [DKLS459520 (SEQ 60)]	0.03 normalized Rmax	0.63 normalized Rmax		
UUGACAGAUUAAGUCCAUUC (ssRNA, 2'-OMe all, full PS) [DKLS675388 (SEQ 51)]	0.15 normalized Rmax	0.89 normalized Rmax		
UCCUGGAUCCUUCACCAAUG (ssRNA, 2'-OMe all, full PS) [DKLS687192 (SEQ 28)]	0.76 normalized Rmax	1.08 normalized Rmax		
UAAGCUGUUCUAUGUGUU (ssRNA, 2'-OMe all, full PS) [DKLS463500 (SEQ 23)]	0.32 normalized Rmax	0.74 normalized Rmax		
CAGCAGCAGAGUCUUCAUCAU (ssRNA, 2'-OMe all, full PS) [DKLS354527 (SEQ 21)]	0.37 normalized Rmax	0.91 normalized Rmax		
GCUCCAGCAUCUGCUGCUUC (ssRNA, 2'-OMe all, full PS) [DKLS491049 (SEQ 32)]	0.26 normalized Rmax	0.65 normalized Rmax		
GGCACGUCCGCCAGUCAUGU (ssRNA, 2'-OMe all, full PS) [DKLS656105 (SEQ 56)]	0.23 normalized Rmax	0.73 normalized Rmax		
CAGAGGCAGCAGUACGACGGCAGAGGCAGC (ssRNA, 2'-OMe all, PS all) [LSA_ATG 30-mer (DKLS428543)]			1.21 normalized Rmax	1.89 normalized Rmax
GCGGUGAACCGGAGUUGGCU (ssRNA, 2'-OMe all, full PS) [DKLS438994 (SEQ 66)]	1.11 normalized Rmax	1.03 normalized Rmax		
UCUCCCAGCAUGUGCCAU (ssRNA, full PS) [DKLS658030 (SEQ 8)]	0.52 normalized Rmax	0.51 normalized Rmax		
GCGGGUCCUCUACGCACUGA (ssRNA, 2'-OMe all, full PS) [DKLS649547 (SEQ 53)]	0.85 normalized Rmax	1.55 normalized Rmax		
UGUCAUAUUCCUGGAUCCUU (ssRNA, 2'-OMe all, full PS) [DKLS684387 (SEQ 29)]	0.87 normalized Rmax	1.38 normalized Rmax		

Binder	binding signal (THOC4 (ALYREF) [1])	binding signal (hSSB1 [2])	binding signal (THOC4 (ALYREF) [3])	binding signal (hSSB1 [4])
CCUGUCAGCCGCACUUGCCU (ssRNA, 2'-OMe all, full PS) [DKLS463357 (SEQ 59)]	0.39 normalized Rmax	0.95 normalized Rmax		
GCCACCCGUCGGUUGCUAGA (ssRNA, 2'-OMe all, full PS) [DKLS659460 (SEQ 52)]	0.89 normalized Rmax	1.65 normalized Rmax		
CCUGUGUGCCCCUCUUCCCU (ssRNA, 2'-OMe all, full PS) [DKLS374580 (SEQ 58)]	0.12 normalized Rmax	0.68 normalized Rmax		
GAGUAAACAUUCUGUGUGGAGUC (ssRNA, 2'-OMe all, full PS) [DKLS965031 (SEQ 17)]	0.64 normalized Rmax	1.35 normalized Rmax		
AGGCAAGUCCGGCUCACUGG (ssRNA, 2'-OMe all, PS all) [RevIn3LSA (DKLS481254)]			0.76 normalized Rmax	0.82 normalized Rmax
CUAGUAAGUCGGACUUGCCU (ssRNA, 2'-OMe all, full PS) [DKLS447399 (SEQ 63)]	1.22 normalized Rmax	1.22 normalized Rmax		
CCAGUGAGCCGGACUUG (ssRNA, 2'-OMe all, PS all) [In3E3 3' truncation 17 nt]			0.69 normalized Rmax	0.59 normalized Rmax
CCAGUGAGCCGGACUUGCCU (ssRNA, 2'-OMe all, phosphodiester, ZEN at both ends) [In3E3 ZEN (DKLS991101)]				0.17 normalized Rmax
CUGCCUAAGUAAAAAGUGUAAAC (ssRNA, 2'-OMe all, full PS) [DKLS687118 (SEQ 15)]	0.51 normalized Rmax	1.21 normalized Rmax		
CAGCAGCAGAGUAUUUAUCAU (ssRNA, 2'-OMe all, full PS) [DKLS481254 (SEQ 31)]	0.46 normalized Rmax	1.1 normalized Rmax		
CCUCUCUGCCGCUCUUGCCU (ssRNA, 2'-OMe all, full PS) [DKLS420640 (SEQ 57)]	0.03 normalized Rmax	0.48 normalized Rmax		
UACCGCGUGCGACCCUCU (ssRNA, 2'-OMe all, full PS) [DKLS784557 (SEQ 10)]	0.49 normalized Rmax	0.69 normalized Rmax		
CCAGACAGCUGGUGUCGCCU (ssRNA, 2'-OMe all, PS all) [In3LSA_scr3_5]			0.43 normalized Rmax	0.75 normalized Rmax
CCAGUGAGCCGGACUUGCCU (ssRNA, PS all, no sugar modification) [In3E3 PS only (DKLS426690)]			1.06 normalized Rmax	0.99 normalized Rmax
UCUUAUGUUUCCGAACCGUU (ssRNA, 2'-OMe all, full PS) [DKLS370480 (SEQ 25)]	0.34 normalized Rmax	0.69 normalized Rmax		
CAGAGGCAGCAGUACGACGG (ssRNA, 2'-OMe all, PS all) [LSA_ATG]			0.96 normalized Rmax	1.1 normalized Rmax
CCAGGGAGCCGGACUUGGCG (ssRNA, 2'-OMe all, full PS) [DKLS712428 (SEQ 64)]	0.51 normalized Rmax	0.7 normalized Rmax		
CCAGUAAGCCAGACUUGCAU (ssRNA, 2'-OMe all, full PS) [DKLS399970 (SEQ 61)]	0.3 normalized Rmax	0.64 normalized Rmax		
CCAGUGAGCCGGACUUGC (ssRNA, 2'-OMe all, PS all) [In3E3 3' truncation 18 nt]			0.87 normalized Rmax	0.67 normalized Rmax

Binder	binding signal (THOC4 (ALYREF) [1])	binding signal (hSSB1 [2])	binding signal (THOC4 (ALYREF) [3])	binding signal (hSSB1 [4])
GUGCAUGGAAUCACGGAGUGGUGCAUGGAA (ssRNA, 2'-OMe all, PS all) [Open_A 30-mer (DKLS722361)]			1.53 normalized Rmax	4.08 normalized Rmax
CCAGUGAGCCGGACUUGCC (ssRNA, 2'-OMe all, PS all) [In3E3 3' truncation 19 nt]			0.9 normalized Rmax	0.68 normalized Rmax
CAGAGGCAGCAGUACGACGG (ssRNA, 2'-OMe all, PS three at each end) [LSA_ATG 2'-OMe PS ends (DKLS286198)]				0.17 normalized Rmax
UACCGCGUGCGACCCUCU (ssRNA, full PS) [DKLS371273 (SEQ 7)]	0.81 normalized Rmax	1.05 normalized Rmax		
GUGCAUGGAAUCACGGAGUG (ssRNA, PS all, no sugar modification) [Open_A PS only (DKLS669778)]			0.76 normalized Rmax	1.3 normalized Rmax
GGCGAAUGAGACUUCUCUUA (ssRNA, 2'-OMe all, full PS) [DKLS693540 (SEQ 27)]	0.89 normalized Rmax	1.64 normalized Rmax		
CUCAUUCCUACCGACACCCC (ssRNA, 2'-OMe all, phosphodiester, ZEN at both ends) [Neg_C ZEN (DKLS789189)]			0.03 normalized Rmax	0.09 normalized Rmax
CCAGUGAGCUGGACUUGCCU (ssRNA, 2'-OMe all, PS all) [In3LSA_CU]			0.54 normalized Rmax	0.97 normalized Rmax
CCAGUGAGCCGGACUUGCCU (ssRNA, 2'-OMe all, PS three at each end) [In3E3 2'-OMe PS ends (DKLS621499)]				0.12 normalized Rmax
UGCUAUCUUAUCACCUUUAG (ssRNA, 2'-OMe all, full PS) [DKLS331584 (SEQ 26)]	0.15 normalized Rmax	0.48 normalized Rmax		
GCCCGUCUGGCGCAUAGCUA (ssRNA, 2'-OMe all, full PS) [DKLS646683 (SEQ 54)]	0.85 normalized Rmax	0.98 normalized Rmax		
ACAUGGUUCCCCGACAGUGUUA (ssRNA, 2'-OMe all, full PS) [DKLS687118 (SEQ 35)]	0.72 normalized Rmax	1.7 normalized Rmax		
GGAGGGAGUCGGACUUGUCU (ssRNA, 2'-OMe all, full PS) [DKLS444294 (SEQ 65)]	1.78 normalized Rmax	1.58 normalized Rmax		
GGGACGCGGCGCUCGGUCAU (ssRNA, 2'-OMe all, full PS) [DKLS951212 (SEQ 30)]	1.35 normalized Rmax	2.13 normalized Rmax		
CCAGUGAGCCG (ssRNA, 2'-OMe all, full PS) [In3E3 3' truncation 11 nt]	-0.03 normalized Rmax	0.15 normalized Rmax		
CUCAUUCCUACCGACACCCC (ssRNA, 2'-OMe all, phosphodiester) [Neg_C 2'-OMe PD (DKLS341370)]			0.08 normalized Rmax	0.37 normalized Rmax
CCAGUGAGCCGAACUUCUCU (ssRNA, 2'-OMe all, full PS) [DKLS459014 (SEQ 62)]	0.26 normalized Rmax	0.55 normalized Rmax		
ACAUCGUUACCAGACAGUGUUA (ssRNA, 2'-OMe all, full PS) [DKLS687764 (SEQ 34)]	0.75 normalized Rmax	1.47 normalized Rmax		
